Assay results: patent publication US11434299 (TENEOBIO, dated 2022)

T1: human BCMA (B-Cell Maturation Antigen) on NCI-H929 cells (human, UniProt Q02223 1-184)
T1 construct: whole, on cells; Endogenous BCMA on NCI-H929 myeloma cells; also called TNFRSF17; H929 cells (BCMA+, lambda-)
T1 sequence (looked up): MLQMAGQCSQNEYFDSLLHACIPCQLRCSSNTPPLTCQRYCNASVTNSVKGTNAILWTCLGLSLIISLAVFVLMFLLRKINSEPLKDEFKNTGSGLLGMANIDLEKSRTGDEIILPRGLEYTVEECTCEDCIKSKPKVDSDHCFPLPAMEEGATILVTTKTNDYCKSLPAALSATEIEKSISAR


Target: T1, human BCMA (B-Cell Maturation Antigen) …
Assay: flow cytometry, HEK supernatants on NCI-H929 cells (BCMA+)
Protocol: Supernatants of all antibodies were also tested by flow cytometry for binding to RPMI-8226 cells (BCMA+, lambda+) and H929 cells (BCMA+, lambda−). The samples were measured by flow cytometry using a Guava easyCyte 8HT instrument from EMD Millipore and analyzed using guavaSoft. Bound antibodies were detected with goat anti-human IgG F(ab')_2 conjugated to PE (Southern Biotech 2042-09). All antibodies were diluted in PBS with 1% BSA. Positive staining was determined by comparison to staining with a human IgG1 isotype control. The NCI-H929 and RPMI-8226 cell lines are human multiple myeloma lines expressing human BCMA, which were obtained from the American Type Culture Collection (ATCC) and cultured according to ATCC recommendations.

Binder	binding result
SEQ ID NO 29 (antibody, V domains shown, UniAb: CH1 deleted, no light chain; HEK supernatant) VH: EVQLLESGGGLVQPGGSLRLSCAASGFTFSSYAMNWVRQAPGKGLEWVSGIIGSGGSTYYADSVKGRFTISRDNSKNTLYLQMNSLRAEDTAVYYCVKDWNTTMITERGQGTLVTVSS	binds
SEQ ID NO 40 (antibody, V domains shown, UniAb: CH1 deleted, no light chain; HEK supernatant) VH: EVQLLESGGGLVQPGGSLRLSCAASGFTFSSYAMSWVRQAPGKGLEWVSGIIGSGGSTYYADSVKGRFTISRDNSKNTLYLQMNSLRVEDTAVYYCVKDWNTTMITERGQGTLVTVSS	binds
SEQ ID NO 28 (antibody, V domains shown, UniAb: CH1 deleted, no light chain; HEK supernatant) VH: EVQLLESGGGLVQPGGSLRLSCAASGFTFSSYAMNWVRQAPGKGLEWVSGITGSGGSTYYADSVKGRFSISRDNSKNTLDLQMNSLRAEDTAVYYCVKDWNTTMITERGQGTLVTVSS	binds
SEQ ID NO 32 (antibody, V domains shown, UniAb: CH1 deleted, no light chain; HEK supernatant) VH: EVQLLESGGGLVQPGGSLRLSCAASGFTFSSYAMSWVRQAPGKGLEWVSGLTGSGDSTYYADSVKGRFTISRDNDKNTVYLQMNSLRAEDTAVYYCVKDWNTTMITERGQGTLVTVSS	binds
SEQ ID NO 52 (antibody, V domains shown, UniAb: CH1 deleted, no light chain; HEK supernatant) VH: EVQLLESGGGLVQPGGSLRLSCAASGFTFSSYAMNWVRQAPGKGLEWVSGIVGGGGTSYYADSVRGRFTISRDNSKNTLYLQMNSLRAEDTAVYYCVKDWNTTMITERGQGTLVTVSS	binds
SEQ ID NO 30 (antibody, V domains shown, UniAb: CH1 deleted, no light chain; HEK supernatant) VH: EVQLLESGGGLVQPGGSLRLSCAASGFTFSSYAMNWVRQAPGKGLEWVSGIIGSGGSTYYADSVKGRFTISRDNSKNTVYLQMNSLRAEDTAVYYCVKDWNTTMITERGQGTLVTVSS	binds
SEQ ID NO 33 (antibody, V domains shown, UniAb: CH1 deleted, no light chain; HEK supernatant) VH: EVQLLESGGGLVQPGGSLRLSCAASGFTFSNYAMTWIRQAPGKGLEWVSGITGDGGSTFYADSVKGRFSISRDNSKNTLDLQMNSLRAEDTAVYYCVKDWNTTMITERGQGTLVTVSS	binds
SEQ ID NO 39 (antibody, V domains shown, UniAb: CH1 deleted, no light chain; HEK supernatant) VH: EVQLLESGGGLVQPGGSLRLSCAASGFTFSNYAMSWVRQAPGKGLEWVSGIIGSGGSTYYADSVKGRFSISRDNSKNTLYLQMNSLRAEDTAVYYCVKDWNTTMITERGQGTLVTVSS	binds
SEQ ID NO 47 (antibody, V domains shown, UniAb: CH1 deleted, no light chain; HEK supernatant) VH: EVQLLESGGGLVQPGESLRLSCAASGFTFSNYAMNWVRQAPGKGLEWVSGIVGGGGTSYYADSVRGRFTISRDNSKNTLYLQMNSLRAEDTAVYYCVKDWNTTMITERGQGTLVTVSS	binds
SEQ ID NO 37 (antibody, V domains shown, UniAb: CH1 deleted, no light chain; HEK supernatant) VH: EVQLLESGGGLVQPGGSLRLSCAASGFTFTNYAMNWVRQAPGKGLEWVSGIIGSGGSTYYADSVKGRFTISRDNSKNTLYLQMNSLRAEDTAVYYCVKDWNTTMITERGQGTLVTVSS	binds
SEQ ID NO 50 (antibody, V domains shown, UniAb: CH1 deleted, no light chain; HEK supernatant) VH: EVQLLESGGGLVQPGGSLRLSCAASGFTFSSYAMSWVRQAPGKGLEWVSGIIGSGGTTYYADSVKGRFTISRDNSKNTLNLQMNSLRAEDTAIYYCVKDWNTTMITERGQGTLVTVSS	binds
SEQ ID NO 21 (antibody, V domains shown, UniAb: CH1 deleted, no light chain; HEK supernatant) VH: EVQLLESGGGLVQPGRSLRLSCAASGFTFTNYAMNWVRQAPGKGLEWVSGISGGGGSTYYADSVKGRFTISRDNSKNTLYLQMNSLRAEDTAVYYCVKDWNTTMITERGQGTLVTVSS	binds
SEQ ID NO 38 (antibody, V domains shown, UniAb: CH1 deleted, no light chain; HEK supernatant) VH: EVQLLESGGGVVQPGRSLRLSCAASGFTFSSYAMSWVRQAPGKGLEWVSGIIGSGGSTYYADSVKGRFTISRDNSKNTLYLQMNSLRAEDTAVYYCVKDWNTTMITERGQGTLVTVSS	binds
SEQ ID NO 41 (antibody, V domains shown, UniAb: CH1 deleted, no light chain; HEK supernatant) VH: EVQLLESGGGVVQPGRSLRLSCAASGFTFSNYAMNWVRQAPGKGLEWVSGIIGSGGSTYYADSVKGRFTISRDNSKNTLYLQMNSLRAEDTAVYYCVKDWNTTMITERGQGTLVTVSS	binds
SEQ ID NO 42 (antibody, V domains shown, UniAb: CH1 deleted, no light chain; HEK supernatant) VH: EVQLLESGGGLVQPGGSLRLSCAASGFTFSNYAMNWVRQAPGKGLEWVSGIIGSGGSTYYADSVKGRFTISRDNSKNTLYLQMNSLRAEDTAVYYCVKDWNTTMITERGQGTLVTVSS	binds
SEQ ID NO 49 (antibody, V domains shown, UniAb: CH1 deleted, no light chain; HEK supernatant) VH: EVQLLESGGGLVQPGGSLRLSCAASGFTFSSYAMTWIRQAPGKGLEWVSGIVGGGGTSYYADSVRGRFTISRDNSKNTLYLQMNSLRAEDTAVYYCVKDWNTTMITERGQGTLVTVSS	binds

Binder	binding result
SEQ ID NO 35 (antibody, V domains shown, UniAb: CH1 deleted, no light chain; HEK supernatant) VH: EVQLLESGGGLVQPGGSLRLSCAASGFTFSSYAMSWVRQAPGKGLEWVSGITGSGGSTYYADSVKGRFSISRDNSKNTLDLQMNSLRAEDTAVYYCVKDWNTTMITERGQGTLVTVSS	binds
SEQ ID NO 20 (antibody, V domains shown, UniAb: CH1 deleted, no light chain; HEK supernatant) VH: EVQLLESGGGLAQPGGSLRLSCAASGFTFSSYAMNWIRQAPGKGLEWVSGISGSGGSTYYADSVKGRFTISRDNSKNTVYLQMNSLRAEDTAVYYCVKDWNTTMITERGQGTLVTVSS	binds
SEQ ID NO 36 (antibody, V domains shown, UniAb: CH1 deleted, no light chain; HEK supernatant) VH: EVQLLESGGGLVQPGGSLRLSCAASGFTFSNYAMNWVRQAPGNGLEWVSGLTGSGGSTYYADSVKGRFTISRDNSKNTVYLQMNSLRAEDTAVYYCVKDWNTTMITERGQGTLVTVSS	binds
SEQ ID NO 44 (antibody, V domains shown, UniAb: CH1 deleted, no light chain; HEK supernatant) VH: EVQLLESGGGLVQPGGSLRLSCAASGFTFSNYAMSWVRQAPGKGLEWVSGIIGSGGSTYYADSVKGRFTISRDNSKNTLYLQMNSLRAEDTAVYYCVKDWNTTMITERGQGTLVTVSS	binds
SEQ ID NO 23 (antibody, V domains shown, UniAb: CH1 deleted, no light chain; HEK supernatant) VH: EVQLLESGGGLVQPGGSLRLSCAASGFTFSSYAMSWVRQAPGKGLEWVSGITGDGGSTFYADSVKGRFTISRDNSKNTLYLQMNSLRAEDTAVYYCVKDWNTTMITERGQGTLVTVSS	binds
SEQ ID NO 31 (antibody, V domains shown, UniAb: CH1 deleted, no light chain; HEK supernatant) VH: EVQLLESGGGLVQPGGSLRLSCAASGFTFSSYAMNWVRQAPGKGLEWVSGITGSGDSTYYAASVKGRFSISRDNSQNTLDLQMNSLRAEDTAVYYCVKDWNTTMITERGQGTLVTVSS	binds
SEQ ID NO 45 (antibody, V domains shown, UniAb: CH1 deleted, no light chain; HEK supernatant) VH: EVQLLESGGGVVQPGRSLRLSCAASGFTFSSYAMNWVRQAPGKGLEWVSGIIGSGGSTYYADSVKGRFTISRDNSKNTLYLQMNSLRAEDTAVYYCVKDWNTTMITERGQGTLVTVSS	binds
SEQ ID NO 22 (antibody, V domains shown, UniAb: CH1 deleted, no light chain; HEK supernatant) VH: EVQLLESGGGLVQPGGSLRLSCAASGFTFSSYAMTWVRQAPGKGLEWVSGITENGGSTYYADSVKGRFTISRDNSKNTLDLQMNSLRAEDTAVYYCVKDWNTTMITERGQGTLVTVSS	binds
SEQ ID NO 51 (antibody, V domains shown, UniAb: CH1 deleted, no light chain; HEK supernatant) VH: EVQLLESGGGLVQPGGSLRLSCAASGFTFSNYAMNWVRQAPGKGLEWVSGITGSGGSTYYADSVKGRFTISRDNSKNTLYLQMNSLRVEDTAVYYCVKDWNTTMITERGQGTLVTVSS	binds
SEQ ID NO 46 (antibody, V domains shown, UniAb: CH1 deleted, no light chain; HEK supernatant) VH: EVQLLESGGGLVQPGGSLRLSCAASGFTFSSYAMSWVRQAPGKGLEWVSGIIGSGGSTFYADSVKGRFTISRDNSKNTLYLQMNSLRAEDTAVYYCVKDWNTTMITERGQGTLVTVSS	binds
SEQ ID NO 48 (antibody, V domains shown, UniAb: CH1 deleted, no light chain; HEK supernatant) VH: EVQLLESGGGLVQPGGSLRLSCAASGFTFSNYAMTWIRQAPGKGLEWVSGITGDGGSTFYADSVKGRFTISRDNSKNTLYLQMNSLRAEDTAVYYCVKDWNTTMITERGQGTLVTVSS	binds
SEQ ID NO 34 (antibody, V domains shown, UniAb: CH1 deleted, no light chain; HEK supernatant) VH: EVQLLESGGGLVQPGGSLRLSCAASGFTFSRYAMNWIRQAPGKGLEWVSGIVGSGGNTYYADSVKGRFSISRDNSKNTLYLQMNSLRAEDTAVYYCVKDWNTTMITERGQGTLVTVSS	binds
SEQ ID NO 24 (antibody, V domains shown, UniAb: CH1 deleted, no light chain; HEK supernatant) VH: EVQLLESGGGLVQPGGSLRLSCAASGFTFSSYAMSWVRQAPGKGLEWVSGIIGSGGSTYYADSVKGRFSISRDNSKNTLDLQMNSLRAEDTAVYYCVKDWNTTMITERGQGTLVTVSS	binds
SEQ ID NO 43 (antibody, V domains shown, UniAb: CH1 deleted, no light chain; HEK supernatant) VH: EVQLLESGGGLVQPGGSLTLSCAASGFTFSNYAMNWVRQAPGKGLEWVSGIIGSGATTYYADSVKGRFTISRDNSKNTLNLQMNSLRAEDTAIYYCVKDWNTTMITERGQGTLVTVSS	binds
SEQ ID NO 27 (antibody, V domains shown, UniAb: CH1 deleted, no light chain; HEK supernatant) VH: EVQLLESGGGLVQPGGSLRLSCAASGFTFSSYAMNWVRQAPGKGLEWVSGLTGNGDSTYYADSVKGRFTISRDNSKNTVYLQMNSLRAEDTAVYYCVKDWNTTMITERGQGTLVTVSS	binds
